Biological target: PAM4 antigen (human pancreatic cancer mucin, CaPan1) (human)
Assay: ELISA on target mucin antigen (FIG. 9)

EC50: 30.6 nM
B1: monovalent bsPAM4 chemical conjugate (PAM4-Fab′ x anti-DTPA-Fab′) (bispecific antibody, part only; not given: Anti-DTPA Fab′ and constant parts, V domains shown, part only)
VH: QVQLQESGPELVKPGASVKMSCKASGYTFPSYVLHWVKQKPGQGLEWIGYINPYNDGTQYNEKFKGKATLTSDKSSSTAYMELSRLTSEDSAVYYCARGFGGSYGFAYWGQGTLITVSS
VL: DIQLTQSPAIMSASPGEKVTMTCSASSSVSSSYLYWYQQKPGSSPKLWIYSTSNLASGVPARFSGSGSGTSYSLTISSMEAEDAASYFCHQWNRYPYTFGGGTKLEIKR

From patent US20090304580A1
